The results in this text go back to article PMC5109294, “NANOG reprograms prostate cancer cells to castration resistance via dynamically repressing and engaging the AR/FOXA1 signaling axis”.

The series has as its target T1, FOXA1 (Homo sapiens, UniProt P55317 1-472).
T1 sequence: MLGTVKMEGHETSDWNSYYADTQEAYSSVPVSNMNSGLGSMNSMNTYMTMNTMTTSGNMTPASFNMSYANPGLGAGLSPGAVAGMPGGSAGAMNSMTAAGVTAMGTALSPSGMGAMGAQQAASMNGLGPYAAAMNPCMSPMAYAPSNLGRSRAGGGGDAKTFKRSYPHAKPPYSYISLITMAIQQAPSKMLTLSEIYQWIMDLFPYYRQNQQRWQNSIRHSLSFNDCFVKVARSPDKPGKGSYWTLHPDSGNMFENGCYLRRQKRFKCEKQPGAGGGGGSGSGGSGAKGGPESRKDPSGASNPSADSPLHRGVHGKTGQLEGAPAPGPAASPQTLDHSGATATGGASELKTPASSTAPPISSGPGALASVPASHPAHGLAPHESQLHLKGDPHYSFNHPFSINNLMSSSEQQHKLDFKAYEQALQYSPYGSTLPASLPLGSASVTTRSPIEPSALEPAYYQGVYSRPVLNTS
Nature of the series: EMSA; 100 ng protein; competed by 300x unlabeled probe; weaker than NP8 at 1:1; LightShift Chemiluminescent EMSA kit; probe annealed in 20 mM Tris-HCl pH 7.5, 150 mM NaCl; 4-20% native gel, 0.5X TBE; binding buffer and temperature not stated. The conditions noted are these: protein: recombinant; tags: GST (pGEX-6p-1); label: biotin (both strands); blunt; some single-stranded primer remains after annealing.

B1: FOXA1 motif probe, UBE2C gene promoter (dsDNA)
DNA 1: CTTAGTGTTTATTTCAAGCT
DNA 2: AGCTTGAAATAAACACTAAG
B1: the binding result is listed as “binds”.
